In patent US20100291145A1:

Target: human melanoma gp100(46-58) peptide, Ac-…-NH2 (human)
Assay: ELISA, gp100(46-58) peptide on plate; naive DR4-IE Tg serum; anti-IgG2a detection

ELISA IgG2a signal at serum dilution 1:20: 0.063
ELISA IgG2a signal at serum dilution 1:60: 0.058
ELISA IgG2a signal at serum dilution 1:180: 0.056
ELISA IgG2a signal at serum dilution 1:540: 0.055
Substance: serum of naive DR4-IE Tg mice (control of Tables 23.9 and 23.10) (antibody)
